Values of other authors, collected in patent US8901073B2, “Compounds and their effects on feeding behaviour” (Imperial Innovations Limited, priority 2011, dated 2014).

Conditions: endogenous PYY in circulation; cited from earlier work

endogenous PYY: peptide YY polypeptide, a hormone secreted into the blood by cells lining the lower small intestine and the colon
half life: several minutes
